Measurements published in PMC5512577 (Nature Communications, 2016).
One block for each binder: values may come before it. Ends that are not written are not given here. * marks the point of attachment. FITC = O=C1OC2(c3ccc(O)cc3Oc3cc(O)ccc32)c2ccc(NC(=S)*)cc21; Farnesyl = CC(C)=CCC/C(C)=C/CC/C(C)=C/C*; Far = not defined here

B2: full-length Arl2, C-terminal histidine-tagged, bound to GppNHp or mantGppNHp (natural protein, UniProt Q9D0J4 1-184, looked up)
chain: MGLLTILKKMKQKERELRLLMLGLDNAGKTTILKKFNGEDVDTISPTLGFNIKTLEHRGFKLNIWDVGGQKSLRSYWRNYFESTDGLIWVVDSADRQRMQDCQRELQSLLVEERLAGATLLIFANKQDLPGALSCNAIQEALELDSIRSHHWRIQGCSAVTGEDLLPGIDWLLDDISSRVFTAD
notes: Loaded with GppNHp (release assays) or mantGppNHp (kinetics with PDE6δ); Species surmised as mouse from earlier work of the same laboratory; the human protein is P36404; also called Arl2^fl; Arl2·GppNHp; source: E. coli BL21-CodonPlus(DE3)-RIL, purified (Ni-NTA, gel filtration)
B3: TAMRA-labelled farnesylated and carboxy-methylated C-terminal peptide of INPP5E (residues 637-644) (peptide)
peptide: SQNSSTIC(Farnesyl)-OMe
modifications: also: TAMRA label, position not given here
notes: C-terminal peptide of inositol polyphosphate 5'-phosphatase E (INPP5E), printed as residues 637-644 with the farnesylated Cys644; also called INPP5E peptide; TAMRA-labelled INPP5E peptide; source: synthetic peptide, bought: JPT
B5: phosphodiesterase 6 delta subunit (PDE6δ), N-terminal histidine-tagged (natural protein)
chain: MSAKDERAREILRGFKLNWMNLRDAETGKILWQGTEDLSVPGVEHEARVPKKILKCKAVSRELNFSSTEQMEKFRLEQKVYFKGQCLEEWFFEFGFVIPNSTNTWQSLIEAAPESQMMPASVLTGNVIIETKFFDDDLLVSTSRVRLFYV
notes: PDE6δ, the delta subunit of phosphodiesterase 6; the PDE6δ of PDB 3T5G was the search model for the structure solved here (5F2U); also called PrBP/PDE6δ; source: E. coli BL21-CodonPlus(DE3)-RIL, purified (Ni-NTA, gel filtration)

Columns and labels:
Settings in all cases: both partners purified
[1] = target: B5; experiment: fluorescence polarisation; competition: complex of 0.5 μM FITC-labelled Rheb peptide and 1 μM PDE6δ titrated with unlabelled mutant peptide; fitted with a competition model; 20 °C
[2] = target: B5; experiment: fluorescence polarisation; stopped flow; kon: 0.2 μM mantGppNHp-loaded Arl protein with increasing PDE6δ; koff: 2 μM PDE6δ with 0.2 μM mantGppNHp-loaded Arl protein mixed with 200-fold excess of unlabelled Arl protein; Kd=koff/kon; 20 °C
[3] = target: B5; experiment: fluorescence polarisation; 0.01 μM TAMRA-labelled INPP5E peptide or 0.5 μM FITC-labelled Rheb peptide titrated with increasing PDE6δ; 20 °C; 25 mM Tris-HCl pH 7.5, 50 mM NaCl, 3 mM DTE; quadratic fit
[4] = target: B5; experiment: fluorescence polarisation; stopped flow; complex of 1 μM PDE6δ with 0.2 μM labelled peptide mixed with 100-fold excess of unlabelled peptide, no Arl protein; 20 °C
[5] = target: B3; experiment: fluorescence polarisation; stopped flow; complex of 1 μM PDE6δ with 0.2 μM labelled peptide mixed with 100-fold excess of unlabelled peptide and 10 μM Arl3·GppNHp; 20 °C
[6] = target: T1, full-length Arl3, C-terminal histidine-tagged, bound to GppNHp or mantGppNHp (UniProt Q9WUL7 1-182); experiment: fluorescence polarisation; stopped flow; kon: 0.2 μM mantGppNHp-loaded Arl protein with increasing PDE6δ; koff: 2 μM PDE6δ with 0.2 μM mantGppNHp-loaded Arl protein mixed with 200-fold excess of unlabelled Arl protein; Kd=koff/kon; 20 °C
T1 construct: Loaded with the non-hydrolysable GTP analogue GppNHp (release assays) or mantGppNHp (kinetics with PDE6δ); Species surmised as mouse from earlier work of the same laboratory; the human protein is P36405; also called Arl3^fl; Arl3·GppNHp; source: E. coli BL21-CodonPlus(DE3)-RIL, purified (Ni-NTA, gel filtration)

[7] = target: T2, N-terminally truncated Arl3 (aa 18-177), bound to GppNHp or mantGppNHp (UniProt Q9WUL7 18-177); experiment: as above
T2 construct: Arl3 residues 18-177, without the N-terminal helix; Species surmised as mouse from earlier work of the same laboratory; also called Arl3^ΔN; source: E. coli BL21-CodonPlus(DE3)-RIL, purified (GSH column, tag cleaved, gel filtration); not shown: GST, N-terminal, cleaved

[8] = target: B2; experiment: as above
[9] = target: T3, N-terminally truncated Arl2 (aa 17-178), bound to mantGppNHp (UniProt Q9D0J4 17-178); experiment: as above
T3 construct: Arl2 residues 17-178; Species surmised as mouse from earlier work of the same laboratory; also called Arl2^ΔN; source: E. coli BL21-CodonPlus(DE3)-RIL, purified (GSH column, tag cleaved, gel filtration); not shown: GST, N-terminal, cleaved

Kd [1]: 12 nM
B1: Rheb(SI) peptide (K178S/S180I), farnesylated and carboxy-methylated (peptide)
peptide: SQGSSIC(Far)-OMe
modifications: reading uncertain
notes: C-terminal peptide of Rheb with the -1 and -3 residues swapped to those of INPP5E; Unlabelled; also called SQGSSIC(Far)-OMe; source: synthetic peptide, bought: CambridgePeptides

Binder: B2
fold difference in koff against Arl2^ΔN [2]: 3 fold

Binder: B3
Kd [3]: 3.7 nM

koff [4]: 0.95 s⁻¹
Kd [3]: 445 nM
B4: FITC-labelled farnesylated and carboxy-methylated C-terminal peptide of Rheb (residues 175-181) (peptide)
peptide: {FITC}-SQGKSSC(Far)-OMe
modifications: reading uncertain
notes: also called Rheb peptide; Fluorescein-SQGKSSC(Far)-OMe; source: synthetic peptide, bought: JPT

Binder: B5
fold acceleration of koff by Arl3·GppNHp against no Arl [5]: ~10000 fold
Kd [6]: 5.8 nM
Kd [7]: 217 nM
Kd [8]: 149 nM
Kd [9]: 316 nM
